The results in this text go back to paper PMC8304084, “A Concerted Action of UBA5 C-Terminal Unstructured Regions Is Important for Transfer of Activated UFM1 to UFC1” (International Journal of Molecular Sciences, 2021).

Assay [1] deals with Full length UFC1, residues 1–167 (UniProt Q9Y3C8). As to the kind of experiment: ITC; VP-ITC, 25 °C; UBA5 peptides (~400 µM) titrated into 20–25 µM binding partner; 25 mM HEPES pH 7.5, 100 mM NaCl; one-site model; a single profile for each interaction. (ITC needs no label: the signal is the heat of the interaction.)
The target of assay [2] is Full length UBA5, residues 1–404 (human) (UniProt Q9GZZ9). The assay can be described thus: ITC; UFC1 titrated to FL^1–404 and to FL^1–404 C250K~UFM1; 25 °C; 25 mM HEPES pH 7.5, 100 mM NaCl; one-site model.
Assay [3] concerns the target Full length UBA5 (res. 1–404) C250K mutant stably conjugated to UFM1 (UniProt Q9GZZ9). Described as above.

Chain of Full length UBA5 (res. 1–404) C250K mutant stably conjugated to UFM1 (Q9GZZ9 whole entry C250K, chain 1 of 2): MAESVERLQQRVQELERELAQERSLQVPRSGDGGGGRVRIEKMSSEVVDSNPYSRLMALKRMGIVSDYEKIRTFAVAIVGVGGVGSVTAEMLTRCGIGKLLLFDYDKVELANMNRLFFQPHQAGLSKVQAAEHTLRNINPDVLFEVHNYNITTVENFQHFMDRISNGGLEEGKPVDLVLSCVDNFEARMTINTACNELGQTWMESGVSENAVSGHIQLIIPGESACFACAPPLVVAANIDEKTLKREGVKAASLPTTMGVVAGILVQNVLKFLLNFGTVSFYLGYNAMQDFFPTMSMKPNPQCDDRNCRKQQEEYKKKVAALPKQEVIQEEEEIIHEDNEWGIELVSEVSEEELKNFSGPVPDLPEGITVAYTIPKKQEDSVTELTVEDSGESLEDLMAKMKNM
Chain of Full length UBA5 (res. 1–404) C250K mutant stably conjugated to UFM1 (P61960 other isoform, or with tags, fused parts or gaps C250K, chain 2 of 2, further chain): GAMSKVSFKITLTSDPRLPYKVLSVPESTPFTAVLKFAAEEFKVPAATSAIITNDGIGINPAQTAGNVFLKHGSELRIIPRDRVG
Chain of UBA5 C-terminal regions R2 and R3, residues 359–404 (Q9GZZ9 other isoform, or with tags, fused parts or gaps): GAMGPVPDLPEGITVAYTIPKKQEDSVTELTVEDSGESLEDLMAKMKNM
Chain of UBA5 C-terminal region R2, residues 359–376 (Q9GZZ9 other isoform, or with tags, fused parts or gaps): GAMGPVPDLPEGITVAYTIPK

Broadly, the Kd is the equilibrium constant for the complex coming apart. A word on the stoichiometry N: it is a count of units in the complex or per binding partner. On to “UBA5 C-terminal regions R2 and R3, residues 359–404 (from UniProt Q9GZZ9 359-404) (peptide)”, for which, in assay [1], the Ka was found to be 370000 M⁻¹, the Kd was determined as 2700 nM, the dH is -8.08 kcal/mol and the stoichiometry N came to 0.97.

For the substance “UBA5 C-terminal part with A371T mutant (res. 325–404) (from UniProt Q9GZZ9 325-404) (domain or fragment)”, in assay [1], the Ka turned out to be 540000 M⁻¹, the dissociation constant Kd turned out to be 1800 nM, the dH was -7.88 kcal/mol and the stoichiometry N turned out to be 1.03.

In assay [1], “UBA5 C-terminal part, residues 325–404 (from UniProt Q9GZZ9 325-404) (domain or fragment)” registered a Ka of 410000 M⁻¹, a Kd of 2400 nM, a dH of -7.04 kcal/mol and a stoichiometry N of 1.03.

For “UBA5 C-terminal region R2, residues 359–376 (from UniProt Q9GZZ9 359-376) (peptide)”, the Kd in assay [1] was over 50000 nM.

In assay [2], “Full length UFC1, residues 1–167 (from UniProt Q9Y3C8 1-167) (enzyme)” yielded a Ka of 720000 M⁻¹, a dissociation constant (Kd) of 1400 nM, a dH of -7.62 kcal/mol and a stoichiometry N of 0.97. In assay [3], this substance displayed a Ka of 870000 M⁻¹, a Kd of 1200 nM, a dH of -8.21 kcal/mol and a stoichiometry N of 1.03.

Regarding “UBA5 C-terminal part with A371E mutant (res. 325–404) (from UniProt Q9GZZ9 325-404) (domain or fragment)”, in assay [1], the Ka was 600000 M⁻¹, the Kd was found to be 1600 nM, the dH is -7.78 kcal/mol and the stoichiometry N amounted to 1.03.
